Reference: patent publication US20110319338A1, “PEPTIDES THAT BIND EUKARYOTIC TRANSLATION INITIATION FACTOR 4E” (The Board of Regents of the University of Texas System, priority 2008, published 2011)
Square brackets hold non-standard residues; d marks the D form. Ends that are not written are not given here.

Experiments:
[1] = target: T1, eIF4E (Homo sapiens, UniProt P06730); experiment: Streptavidin-agarose pull-down of biotinylated peptide from OVCAR-3 cell lysate, Western blot with eIF4E antibody; assay type: binding; details: biotinylated peptide 3 micromoles per liter, 250 micrograms OVCAR-3 cell lysate
T1 construct: endogenous in cells; host or cells: OVCAR-3 cell lysate
Description: (§1) FIGS. 1A-1G. 4EBP peptides bind eIF4E and inhibit binding of eIF4E to eIF4G. (FIG. 1A) Sequences of peptides comprising residues 49 to 68 of 4EBP1 and 4EBP2. (FIG. 1B) Biotinylated peptides (3 micromoles per liter) were incubated with 250 micrograms of OVCAR-3 cell lysate. Peptides were pulled-down using streptavidin-agarose. Precipitates (P) and supernatants (S) were analyzed by Western blot using eIF4E antibody. In (FIG. 1C), immunoprecipitation was performed using eIF4E antibody, and Western blot performed using eIF4G antibody. (FIG. 1D) Sequences of wild-type and mutant 4EBP peptides fused to TAT (mutant residues are highlighted). (FIG. 1E) OVCAR-3 cells were treated with biotinylated peptides (3 micromoles per liter, final concentration) for 16 hours. Internalized peptides were detected by staining fixed cells with Texas Red-conjugated streptavidin. Nuclei were visualized by staining with 4′,6-Diamidino-2-Phenylindole (DAPI). (FIGS. 1F and 1G) OVCAR-3 cell lysates were incubated with peptides as described for FIG. 1B. In (FIG. 1F), immunoprecipitation was performed using streptavidin-agarose and Western blot performed using eIF4E antibody. In (FIG. 1G), immunoprecipitation was performed using eIF4E antibody, and Western blot performed using eIF4G antibody.
(§2) FIGS. 3A-3H. Uptake, binding and inhibitory effects of [DLys6]GnRH-4EBP fusion peptides. (FIG. 3A) Sequences of [DLys6]GnRH, and wild-type and mutant 4EBP1 peptides fused to the agonist. (FIG. 3B) Western blot of GnRH-RI levels in OVCAR-3, ES-2, MDA-MB-231, BJ, HUVEC and SKOV3 cells. (FIG. 3C) Detection of biotinylated peptides in OVCAR-3 and SKOV3 by Texas Red-conjugated streptavidin at 16 hours after peptide addition (3 micromoles per liter). In (FIGS. 3D and 3E), biotinylated peptides were incubated with OVCAR-3 cell lysate as described in FIG. 1. In (FIG. 3D), peptide was pulled down using streptavidin-agarose. Precipitates (P) and supernatants (S) were analyzed by Western blot using eIF4E antibody. In (FIG. 3E), immunoprecipitation was performed using eIF4E antibody, and Western blot performed using eIF4G antibody. (FIG. 3F) R-Luc and F-Luc activities were assayed in ES-2-DualLuc cells at 6 hours after addition of the indicated concentrations of peptides, and are expressed relative to the respective luciferase activities in cells incubated without peptide. Shown are results of triplicate assays performed independently two times, and the statistical significance of differences in relative R-Luc and F-Luc activities in cells treated with peptide at a concentration of 10 micromoles per liter (FIG. 3G) Cells of GnRH-RI-positive and -negative lines were treated with the indicated concentrations of peptides. […]

[2] = target: T2, binding of eIF4E to eIF4G (Homo sapiens, UniProt P06730); experiment: Immunoprecipitation with eIF4E antibody and Western blot with eIF4G antibody, OVCAR-3 cell lysate incubated with peptide; details: peptide 3 micromoles per liter, 250 micrograms OVCAR-3 cell lysate
T2 construct: endogenous in cells; host or cells: OVCAR-3 cell lysate
Description: as §1, §2

T1 sequence (P06730 whole entry): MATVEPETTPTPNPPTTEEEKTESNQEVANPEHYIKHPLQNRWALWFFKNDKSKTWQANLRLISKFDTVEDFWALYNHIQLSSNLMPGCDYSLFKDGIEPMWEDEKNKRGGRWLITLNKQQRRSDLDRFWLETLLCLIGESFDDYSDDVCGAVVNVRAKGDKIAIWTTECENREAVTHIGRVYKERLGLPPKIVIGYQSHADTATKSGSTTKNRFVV
T2 sequence (P06730 2-217 limits assumed): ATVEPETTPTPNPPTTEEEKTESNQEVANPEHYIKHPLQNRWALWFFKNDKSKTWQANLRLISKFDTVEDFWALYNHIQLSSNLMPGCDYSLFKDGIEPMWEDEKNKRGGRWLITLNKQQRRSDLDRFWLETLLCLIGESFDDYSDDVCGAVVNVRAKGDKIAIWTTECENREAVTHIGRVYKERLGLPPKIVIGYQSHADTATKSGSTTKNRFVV

Substance: [DLys6]GnRH: GnRH agonist with a D-amino acid substitution at position 6; GnRH-RI-targeting moiety (QHWSY[dK]LRPG; not fully specified (residue 1, C-terminus); ends and bridges not checked)
- binding of peptide to eIF4E [1]: did not bind
- inhibition of eIF4E binding to eIF4G [2]: not inhibited
